Measurements reported in patent US20110065633A1, “ESTER-BASED PEPTIDE PRODRUGS” (INDIANA UNIVERSITY RESEARCH AND TECHNOLOGY CORPORATION, priority 2008, published 2011).
Where two headings read alike, the source gives them in different places. Each block holds one molecule with its values, some of them ahead of it. Bridges are numbered along the chain shown (N, C = ends). Where no end group is shown, it is not given here. [ ]: non-standard residue; d: D form. PhLac = O=C(O)[C@@H](O)Cc1ccccc1

Key:
Assay in all cases: cell-based or functional assay
GLP-1 receptor [1] = target: T1, GLP-1 receptor (Homo sapiens, UniProt P43220)
T1 sequence (P43220 24-463 limits assumed): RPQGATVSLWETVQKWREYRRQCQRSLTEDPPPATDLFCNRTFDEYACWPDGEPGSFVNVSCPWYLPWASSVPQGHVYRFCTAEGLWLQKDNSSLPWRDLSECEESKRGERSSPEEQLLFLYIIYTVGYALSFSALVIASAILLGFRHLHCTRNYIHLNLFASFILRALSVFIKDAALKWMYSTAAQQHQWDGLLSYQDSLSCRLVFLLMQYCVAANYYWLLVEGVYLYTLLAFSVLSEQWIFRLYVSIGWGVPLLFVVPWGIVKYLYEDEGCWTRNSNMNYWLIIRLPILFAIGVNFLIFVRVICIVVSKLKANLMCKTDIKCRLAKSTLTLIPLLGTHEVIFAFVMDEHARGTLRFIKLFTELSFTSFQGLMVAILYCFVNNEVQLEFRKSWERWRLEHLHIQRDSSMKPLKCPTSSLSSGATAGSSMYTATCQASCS

glucagon receptor [2] = target: glucagon receptor (UniProt P47871)
Sequence of glucagon receptor (UniProt P47871) (P47871 26-477 limits assumed): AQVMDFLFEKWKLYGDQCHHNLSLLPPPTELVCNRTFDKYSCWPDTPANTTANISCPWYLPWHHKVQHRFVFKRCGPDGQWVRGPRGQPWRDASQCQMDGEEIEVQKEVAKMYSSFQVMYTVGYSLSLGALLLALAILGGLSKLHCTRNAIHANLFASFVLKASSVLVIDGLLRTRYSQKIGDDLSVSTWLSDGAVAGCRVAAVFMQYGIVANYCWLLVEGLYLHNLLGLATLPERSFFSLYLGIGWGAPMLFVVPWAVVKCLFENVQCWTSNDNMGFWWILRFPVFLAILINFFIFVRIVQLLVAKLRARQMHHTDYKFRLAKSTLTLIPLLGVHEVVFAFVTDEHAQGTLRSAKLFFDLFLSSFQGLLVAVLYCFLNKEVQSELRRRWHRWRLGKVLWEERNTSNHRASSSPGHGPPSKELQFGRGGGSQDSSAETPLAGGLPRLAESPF

GLP-1 receptor [3] = target: T1, GLP-1 receptor; remark: listed apart in the source
glucagon receptor [4] = target: glucagon receptor (UniProt P47871); remark: listed apart in the source
GLP-1 receptor [5] = target: T2, GLP-1 receptor (UniProt P43220 24-463, limits assumed)
glucagon receptor [6] = target: glucagon receptor (UniProt P47871 26-477)
Sequence of glucagon receptor (UniProt P47871 26-477) (P47871 26-477 limits assumed): as above

GLP-1 receptor [7] = target: T2, GLP-1 receptor; remark: listed apart in the source

Molecule: Glucagon (6-CEX) analog D9, K12E16(Lactam) (peptide)
GLP-1 EC50 (GLP-1 receptor [1]): 119 nM | Glu IC50 (glucagon receptor [2]): 828 nM | GLP-1 EC50 (GLP-1 receptor [3]): 18 nM | Glucagon IC50 (glucagon receptor [4]): 828 nM

GLP-1 EC50 (GLP-1 receptor [5]): 289 nM | Glucagon IC50 (glucagon receptor [6]): 22 nM
B1: [PLA6, D9, E16, E24K28(lactam), D28]G(6-29) (peptide)
peptide: [PhLac]TSDYSKYLDERRAQDFVEWLMKT-NH2
modifications: lactam 19-23; N-terminus assumed
SMILES: CSCC[C@@H]1NC(=O)[C@H](CC(C)C)NC(=O)[C@H](Cc2c[nH]c3ccccc23)NC(=O)[C@@H](NC(=O)[C@@H](NC(=O)[C@H](Cc2ccccc2)NC(=O)[C@H](CC(=O)O)NC(=O)[C@H](CCC(N)=O)NC(=O)[C@H](C)NC(=O)[C@H](CCCNC(=N)N)NC(=O)[C@H](CCCNC(=N)N)NC(=O)[C@H](CCC(=O)O)NC(=O)[C@H](CC(=O)O)NC(=O)[C@H](CC(C)C)NC(=O)[C@H](Cc2ccc(O)cc2)NC(=O)[C@H](CCCCN)NC(=O)[C@H](CO)NC(=O)[C@H](Cc2ccc(O)cc2)NC(=O)[C@H](CC(=O)O)NC(=O)[C@H](CO)NC(=O)[C@@H](NC(=O)[C@@H](O)Cc2ccccc2)[C@@H](C)O)C(C)C)CCC(=O)NCCCC[C@@H](C(=O)N[C@H](C(N)=O)[C@@H](C)O)NC1=O

Glucagon IC50 (glucagon receptor [6]): 10 to 30 nM | GLP-1 EC50 (GLP-1 receptor [7]): 4 nM
Molecule: [PhLac]TSDYSKYLDERRAKDFVQWLMDT-NH2 (lactam 11-15) [[PLA6, D9, E16K20(lactam), D28]G(6-29)]

GLP-1 EC50 (GLP-1 receptor [7]): ~700 nM
Molecule: FTSDYSKYLDSRRAQDFVQWLMDT (residue 1 (position 6) is phenyl lactic acid (PLA), written here as F) [PLA 6, D9, D28]

GLP-1 EC50 (GLP-1 receptor [5]): 151 nM | Glucagon IC50 (glucagon receptor [6]): 10 to 30 nM
B2: [E9, E16K20(lactam), D28]G(4-29) (peptide)
peptide: GTFTSEYSKYLDERRAKDFVQWLMDT-NH2
modifications: lactam 13-17; N-terminus assumed
SMILES: CSCC[C@H](NC(=O)[C@H](CC(C)C)NC(=O)[C@H](Cc1c[nH]c2ccccc12)NC(=O)[C@H](CCC(N)=O)NC(=O)[C@@H](NC(=O)[C@H](Cc1ccccc1)NC(=O)[C@H](CC(=O)O)NC(=O)[C@@H]1CCCCNC(=O)CC[C@H](NC(=O)[C@H](CC(=O)O)NC(=O)[C@H](CC(C)C)NC(=O)[C@H](Cc2ccc(O)cc2)NC(=O)[C@H](CCCCN)NC(=O)[C@H](CO)NC(=O)[C@H](Cc2ccc(O)cc2)NC(=O)[C@H](CCC(=O)O)NC(=O)[C@H](CO)NC(=O)[C@@H](NC(=O)[C@H](Cc2ccccc2)NC(=O)[C@@H](NC(=O)CN)[C@@H](C)O)[C@@H](C)O)C(=O)N[C@@H](CCCNC(=N)N)C(=O)N[C@@H](CCCNC(=N)N)C(=O)N[C@@H](C)C(=O)N1)C(C)C)C(=O)N[C@@H](CC(=O)O)C(=O)N[C@H](C(N)=O)[C@@H](C)O
